Laboratory results as given in patent US20250108100A1, “C-TERMINAL FRAGMENT OF APOLIPOPROTEIN E AND APPLICATION THEREOF IN INHIBITING y-SECRETASE ACTIVITY” (SYNPHATEC (SHANGHAI) BIOPHARMACEUTICAL TECHNOLOGY CO., LTD., priority 2022, published 2025).
“Also recorded” adds a separate entry of the source.

Key:
[1] = test system: HEK 293T cells expressing APP; experiment: APP-expressing HEK 293T cells co-incubated with culture medium containing secreted ApoE2 or ApoE CT: α-CTF; type: cell-based, human; conditions: vs GFP control
Protocol: (§1) • a) A plasmid expressing the target protein in mammalian cells was constructed, and the protein expression promoter is CAG. • b) The target protein was expressed in HEK 293T cell line. Cells were subcultured one day before transfection, and transfection was performed when the degree of cell adhesion reached 70%-80%. The transfection reagent was lipofectamine2000 (ThermoFisher). • c) 4-6 hours post transfection, the medium were replaced with fresh cell culture medium. • d) 36-48 hours post transfection, the cells were lysed (10% 1M tris-HCl (pH=6.8), 4% SDS, 20% glycerol, 0.01% bromophenol blue), and the protein samples were collected and used for Western blot or stored in a −80° C. freezer. • e) Polyacrylamide gel electrophoresis. Before protein loading, the protein was boiled at 98° C. for 10 min, and then centrifuged at 12000 rpm for 10 min. Electrophoresis: 80V for the upper stacking gel; 120V for the lower separating gel. • f) Protein transfer. […]

APLP1 = experiment: γ-cleavage of APLP1 expressed in HEK 293T cells (Western blot); type: cell-based; conditions: PF03084014 at 1 μM
Protocol: as §1
Plasmids were transfected in HEK 293T or N2A cells for 36-48 hours and then lysed in cell lysis buffer [10% 1M tris-HCl (pH=6.8), 4% SDS, 20% glycerol, 0.01% bromophenol blue]. […] Finally, after washing 3 times with 1×TBST, the signal was detected by ECL Western blotting substrate (Solarbio, PE0010).

N100 (NOTCH fragment) = experiment: γ-cleavage of NOTCH fragment N100 in HEK 293T cells co-expressing γ-secretase (Western blot); type: cell-based; conditions: N100-V5 and γ-secretase, PF03084014 at 1 uM
Protocol: (§2) Plasmids were transfected in HEK 293T or N2A cells for 36-48 hours and then lysed in cell lysis buffer [10% 1M tris-HCl (pH=6.8), 4% SDS, 20% glycerol, 0.01% bromophenol blue]. Lysates were shaken at room temperature for 10 min, then boiled for 10 min, and centrifuged at 12,000×g for 10 min. Proteins were run on 8% or 12% Tris-glycine SDS-PAGE and transferred to PVDF membranes (Life Technologies). Samples were incubated overnight at 4° C. with primary antibody diluted in 5% BSA buffer (in 1×TBST). After washing 3 times with 1×TBST, they were incubated with secondary antibody diluted in 5% BSA buffer (in 1×TBST) for 2 hours at room temperature. Finally, after washing 3 times with 1×TBST, the signal was detected by ECL Western blotting substrate (Solarbio, PE0010).

mouse APP (mAPP) = experiment: α-CTF produced by mouse APP (mAPP) expressed in HEK 293T cells; type: cell-based; conditions: HEK 293T cells transiently expressing mAPP
Protocol: as §2

[2] = test system: APP and BACE1 co-expressed in N2A cells; experiment: Aβ40 ELISA in N2A cells co-expressing APP and BACE1; type: cell-based, mouse
Protocol: (§3) 48 hours after transfection of HEK 293T cells and N2A cells, or 4.5 days after lentivirus infection of neurons, media and lysates were collected. Aβ40 and Aβ42 in the culture medium and cell lysates were detected by an Aβ ELISA kit as indicated in the protocol. (Invitrogen Technology; KHB3481 for human Aβ40, KHB3441 for human Aβ42 and KMB3481 for mouse Aβ40).
(§4) Data were analyzed by GraphPad Prism software (v6) using unpaired, paired, or one-sample t-tests. Aβ40 and Aβ42 levels were normalized to the corresponding GFP controls. α-CTF levels were normalized to FL-APP and corresponding GFP controls. All data are represented as mean±SEM. Statistical significance was defined as p<0.05. One, two, three and four stars (*) in the graph indicate p-values <0.05, <0.01, <0.001 and <0.0001, respectively.

APPSW = experiment: Aβ40 produced by Swedish APP mutant (APPSW) in HEK 293T cells (ELISA); type: cell-based, human; conditions: HEK 293T cells expressing APPSW
Protocol: as §3

[3] = test system: APP co-expressed in mouse neuron cell line N2A; experiment: α-CTF produced by APP co-expressed in N2A cells (Western blot); type: cell-based
Protocol: as §2, §4

[4] = test system: human pluripotent stem cell-induced neurons; experiment: Endogenous Aβ40 in human pluripotent stem cell-induced neurons (lentivirus, ELISA); type: cell-based
Protocol: • a) Construction of lentivirus expression plasmids, lentivirus-GFP and lentivirus-ApoE CT, which can be specifically expressed in neurons. • b) The lentivirus vectors were cotransfected with coat protein vectors (PSPAX2 and PMD2G) in HEK 293T cell line. Cells were subcultured one day before transfection, and transfection was performed when the degree of cell adhesion reached 70%-80%. The transfection reagent was Polyjet (SignaGen). • c) 36-48 hours after the transfection, the cell culture was collected and filtered through a 0.22 μm filter membrane. • d) The filtered cell culture solution was ultracentrifuged. Centrifuged at 20000 rpm, 4° C. for 2 hours and 5 minutes. • e) After centrifugation, the supernatant was removed, and the precipitation of every three precipitates of 10 cm cell culture medium was resuspended with 50 μl of PBS. • f) The resuspended virus was subpackaged and stored in a −80° C. refrigerator for subsequent experiments.
as §3

B1: ApoE CT: C-terminal fragment of ApoE, positions 216-299 of SEQ ID NO: 12; SEQ ID NO: 33 (protein)
chain: ARMEEMGSRTRDRLDEVKEQVAEVRAKLEEQAQQIRLQAEAFQARLKSWFEPLVEDMQRQWAGLVEKVQAAVGTSAAPVPSDNH
α-CTF produced by APP in cells co-incubated with protein in culture medium [1]: does not significantly alter α-CTF levels; also recorded: does not change the α-CTF; also recorded: does not alter the α-CTF | α-like CTF of APLP1 (APLP1): does not increase the α-like CTF of APLP1; also recorded: did not increase the α-like CTF | γ-secretase-dependent reduction of N100 (N100 (NOTCH fragment)): failed to suppress | α-CTF levels from mouse APP (mouse APP (mAPP)): increases α-CTF levels | total Aβ40 [2]: significantly reduced | Aβ40 in cell lysates, reduced by (APPSW): approximately 43% | Aβ40 in the medium, reduced by (APPSW): approximately 76% | level of α-CTF compared with ApoE2 [3]: significantly increases the level of α-CTF | α-CTF produced by co-expressed APP ([3]; Western blot, vs GFP control): significantly increases α-CTF | reduction in Aβ40 production ([4]; hiPSC-induced neurons, lentiviral infection): approximately 46% | endogenous Aβ40 ([4]; human neurons from pluripotent stem cell line, lentivirus): also reduces endogenous Aβ40 | endogenous production of Aβ40 ([4]; human pluripotent stem cell-induced neurons): about 54 % of controls
